Laboratory results from patent US20180244785A1 (MERRIMACK PHARMACEUTICALS, published 2018).

T1: soluble FGFR4 receptor protein (human, UniProt P22455 144-369)
T1 sequence: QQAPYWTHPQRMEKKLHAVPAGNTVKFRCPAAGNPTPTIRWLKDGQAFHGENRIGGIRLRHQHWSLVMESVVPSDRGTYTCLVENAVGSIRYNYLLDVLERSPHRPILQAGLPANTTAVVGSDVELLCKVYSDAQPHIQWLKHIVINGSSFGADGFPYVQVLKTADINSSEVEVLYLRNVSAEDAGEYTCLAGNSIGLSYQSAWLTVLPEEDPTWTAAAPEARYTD

T2: soluble FGFR1c receptor protein (human, UniProt P11362 141-376)
T2 sequence: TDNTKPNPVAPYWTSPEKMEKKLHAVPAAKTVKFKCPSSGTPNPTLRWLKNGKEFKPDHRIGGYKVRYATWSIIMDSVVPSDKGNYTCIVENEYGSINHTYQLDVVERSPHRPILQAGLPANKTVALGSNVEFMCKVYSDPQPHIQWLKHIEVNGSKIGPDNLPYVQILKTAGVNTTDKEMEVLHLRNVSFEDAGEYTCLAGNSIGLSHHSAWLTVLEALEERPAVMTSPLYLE

T3: soluble FGFR3c receptor protein (human, UniProt P22607 141-372)
T3 sequence: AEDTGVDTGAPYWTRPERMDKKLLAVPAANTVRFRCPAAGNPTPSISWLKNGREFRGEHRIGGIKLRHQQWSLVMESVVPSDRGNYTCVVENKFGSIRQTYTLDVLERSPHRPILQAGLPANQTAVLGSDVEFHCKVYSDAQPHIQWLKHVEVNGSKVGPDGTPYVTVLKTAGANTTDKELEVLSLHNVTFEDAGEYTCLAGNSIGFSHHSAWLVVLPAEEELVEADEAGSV


What was measured:
Assay in all cases: BLI Octet RED96, antibody on anti-hIgG Fc tip
[1] = target: T1, soluble FGFR4 receptor protein
Procedure: (§1) Briefly, the Pall ForteBio Octet RED96 Bio-Layer Interferometry system was used to determine the specificity of anti-FGFR antibodies for FGFR1c, FGFR2c, FGFR3c, and FGFR4. The antibodies and soluble receptor proteins were prepared in PBS at a concentration of 300 nM. First, the candidate antibodies were immobilized on the surface of anti-human IgG Fc biosensor tips for 120 seconds. After immobilization, the biosensors were dipped in PBS solution for 60 seconds (baseline step) to assess assay drift, and determine loading level of antibodies. The baseline step was followed by an association step of 300 seconds wherein the binding interaction between the immobilized antibodies and soluble receptors was measured. Following the association step, the biosensors were dipped into PBS buffer for 600 seconds to measure the dissociation of the bound receptor proteins from the immobilized antibodies. Each binding response was measured and reported real time on a sensorgram trace. For data analysis, a simple 1:1 binding model was used which measures the rate of complex formation of one immobilized antibody and one soluble receptor protein.

[2] = target: T2, soluble FGFR1c receptor protein
Procedure: as §1

[3] = target: T3, soluble FGFR3c receptor protein
Procedure: as §1

[4] = target: soluble FGFR2c receptor protein (human, UniProt P21802 148-377)
Sequence of soluble FGFR2c receptor protein (P21802 148-377): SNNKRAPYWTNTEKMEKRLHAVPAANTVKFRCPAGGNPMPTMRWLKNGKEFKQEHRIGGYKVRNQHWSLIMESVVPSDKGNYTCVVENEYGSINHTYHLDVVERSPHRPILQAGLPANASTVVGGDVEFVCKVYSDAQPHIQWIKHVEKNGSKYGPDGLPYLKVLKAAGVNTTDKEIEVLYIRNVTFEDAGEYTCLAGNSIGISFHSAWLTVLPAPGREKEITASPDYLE
Procedure: as §1

Row | Binder | Kd [1] [nM] | koff [1] [s⁻¹] | kon [1] [M⁻¹ s⁻¹] | Kd [2] [nM] | koff [2] [s⁻¹] | kon [2] [M⁻¹ s⁻¹] | Kd [3] [nM] | koff [3] [s⁻¹] | kon [3] [M⁻¹ s⁻¹] | Kd [4] [nM] | koff [4] [s⁻¹] | kon [4] [M⁻¹ s⁻¹]
1 | Vk2 combined with the VH of Ab15 (antibody, V domains shown, captured on anti-human IgG Fc tips) VH: EVQLLESGGGVVQPGRSLRLSCAASGFTFSSYAMHWVRQAPGKGLEWVAVISYDGSNKYYADSVKGRFTISRDNSKNTLSLQMNSLRVEDTAIYYCVRGAGRGYTYGPDGFDIWGQGTMVTVSS VL: DIVMTQTPLSLSVTPGQPASISCTSSRSLLHSDGKTYVYWYLQKPGQPPQLLIYELSNRFSGVPDRFSGSGSRTDFTLKISRVEAEDVGVYYCMQYIEAPLTFGGGTKVEIK | 7.06 | 0.000888 | 126000 | 5.74 | 0.000313 | 54500 | 9.2 | 0.0011 | 120000 | 10.8 | 0.00228 | 211000
2 | Vk6 combined with the VH of Ab15 (antibody, V domains shown, captured on anti-human IgG Fc tips) VH: EVQLLESGGGVVQPGRSLRLSCAASGFTFSSYAMHWVRQAPGKGLEWVAVISYDGSNKYYADSVKGRFTISRDNSKNTLSLQMNSLRVEDTAIYYCVRGAGRGYTYGPDGFDIWGQGTMVTVSS VL: DIVMTQTPLSLSVTPGQPASISCKSSQSLLHSDGKTYLYWYLQKPGQPPQLLIYELSNRFSGVPDRFSGSGSGTDFTLKISRVEAEDVGVYYCMQYIEAPLTFGGGTKVEIK | 9.31 | 0.00112 | 120000 | 6.45 | 0.000344 | 53400 | 12.9 | 0.00157 | 121000 | 14.3 | 0.00313 | 219000
3 | Vk1 combined with the VH of Ab15 (antibody, V domains shown, captured on anti-human IgG Fc tips) VH: EVQLLESGGGVVQPGRSLRLSCAASGFTFSSYAMHWVRQAPGKGLEWVAVISYDGSNKYYADSVKGRFTISRDNSKNTLSLQMNSLRVEDTAIYYCVRGAGRGYTYGPDGFDIWGQGTMVTVSS VL: DIVMTQTPLSLSVTPGQPASISCTSSRSLLHSDGKTYLYWYLQKPGQPPQLLIYELSNRFSGVPDRFSGSGSRTDFTLKISRVEAEDVGVYYCMQYIEAPLTFGGGTKVEIK | 8.75 | 0.00105 | 120000 | 4.7 | 0.000243 | 51700 | 12.3 | 0.00138 | 113000 | 12.7 | 0.00245 | 193000
4 | Vk7 combined with the VH of Ab15 (antibody, V domains shown, captured on anti-human IgG Fc tips) VH: EVQLLESGGGVVQPGRSLRLSCAASGFTFSSYAMHWVRQAPGKGLEWVAVISYDGSNKYYADSVKGRFTISRDNSKNTLSLQMNSLRVEDTAIYYCVRGAGRGYTYGPDGFDIWGQGTMVTVSS VL: DIVMTQSPLSLPVTPGEPASISCKSSQSLLHSDGKTYLYWYLQKPGQPPQLLIYELSNRFSGVPDRFSGSGSGTDFTLKISRVEAEDVGVYYCMQYIEAPLTFGGGTKVEIK | 8.33 | 0.00101 | 121000 | 5.84 | 0.000336 | 57600 | 8.7 | 0.00104 | 120000 | 13.1 | 0.00274 | 210000
5 | Vk5 combined with the VH of Ab15 (antibody, V domains shown, captured on anti-human IgG Fc tips) VH: EVQLLESGGGVVQPGRSLRLSCAASGFTFSSYAMHWVRQAPGKGLEWVAVISYDGSNKYYADSVKGRFTISRDNSKNTLSLQMNSLRVEDTAIYYCVRGAGRGYTYGPDGFDIWGQGTMVTVSS VL: DIVMTQTPLSLSVTPGQPASISCRSSRSLLHSDGKTYVYWYLQKPGQPPQLLIYELSNRFSGVPDRFSGSGSGTDFTLKISRVEAEDVGVYYCMQYIEAPLTFGGGTKVEIK | 6.05 | 0.000752 | 124000 | 3.98 | 0.000215 | 54100 | 7 | 0.000891 | 127000 | 8.88 | 0.00176 | 198000

Now from value to binder:

Row | Kd [1] [nM] | koff [1] [s⁻¹] | kon [1] [M⁻¹ s⁻¹] | Kd [2] [nM] | koff [2] [s⁻¹] | kon [2] [M⁻¹ s⁻¹] | Kd [3] [nM] | koff [3] [s⁻¹] | kon [3] [M⁻¹ s⁻¹] | Kd [4] [nM] | koff [4] [s⁻¹] | kon [4] [M⁻¹ s⁻¹] | Binder
6 | 4.89 | 0.000692 | 142000 | 2.39 | 0.000137 | 57200 | 5.43 | 0.000749 | 138000 | 7.35 | 0.00172 | 234000 | Vk9 combined with the VH of Ab15 (antibody, V domains shown, captured on anti-human IgG Fc tips) VH: EVQLLESGGGVVQPGRSLRLSCAASGFTFSSYAMHWVRQAPGKGLEWVAVISYDGSNKYYADSVKGRFTISRDNSKNTLSLQMNSLRVEDTAIYYCVRGAGRGYTYGPDGFDIWGQGTMVTVSS VL: DIVMTQSPDSLAVSLGERATINCKSSQSLLHSDGKTYVYWYQQKPGQPPKLLIYELSNRFSGVPDRFSGSGSGTDFTLTISSLQAEDVAVYYCMQYIEAPLTFGGGTKVEIK
7 | 8.47 | 0.00106 | 125000 | 7.62 | 0.000327 | 42900 | 11.1 | 0.0013 | 117000 | 10.9 | 0.00231 | 212000 | Vk11 combined with the VH of Ab15 (antibody, V domains shown, captured on anti-human IgG Fc tips) VH: EVQLLESGGGVVQPGRSLRLSCAASGFTFSSYAMHWVRQAPGKGLEWVAVISYDGSNKYYADSVKGRFTISRDNSKNTLSLQMNSLRVEDTAIYYCVRGAGRGYTYGPDGFDIWGQGTMVTVSS VL: DIVMTQSPLSLPVTPGEPASISCTSSRSLLHSDGKTYVYWYLQKPGQSPQVLIYELSNRFSGVPDRFSGSGSGTDFTLKISRVEAEDVGVYYCMQYIEAPLTFGGGTKVEIK
8 | 7.01 | 0.000925 | 132000 | 6.51 | 0.000345 | 53000 | 6.38 | 0.000806 | 126000 | 9.76 | 0.0021 | 215000 | Vk12 combined with the VH of Ab15 (antibody, V domains shown, captured on anti-human IgG Fc tips) VH: EVQLLESGGGVVQPGRSLRLSCAASGFTFSSYAMHWVRQAPGKGLEWVAVISYDGSNKYYADSVKGRFTISRDNSKNTLSLQMNSLRVEDTAIYYCVRGAGRGYTYGPDGFDIWGQGTMVTVSS VL: DIVMTQSPLSLPVTPGEPASISCTSSRSLLHSDGKTYVYWYLQKPGQSPQLLIYELSNRFSGVPDRFSGSGSGTDFTLKISRVEAEDVGVYYCMQYIEAPLTFGGGTKVEIK
9 | 6.79 | 0.000855 | 126000 | 4.79 | 0.000262 | 54600 | 7.97 | 0.00101 | 126000 | 10.3 | 0.0022 | 214000 | Vk3 combined with the VH of Ab15 (antibody, V domains shown, captured on anti-human IgG Fc tips) VH: EVQLLESGGGVVQPGRSLRLSCAASGFTFSSYAMHWVRQAPGKGLEWVAVISYDGSNKYYADSVKGRFTISRDNSKNTLSLQMNSLRVEDTAIYYCVRGAGRGYTYGPDGFDIWGQGTMVTVSS VL: DIVMTQTPLSLSVTPGQPASISCTSSRSLLHSDGKTYVYWYLQKSGQPPQLLIYELSNRFSGVPDRFSGSGSRTDFTLKISRVEAEDVGVYYCMQYIEAPLTFGGGTKVEIK
10 | 2.84 | 0.000492 | 173000 | 5.41 | 0.000269 | 49700 | 6.41 | 0.000775 | 121000 | 7.55 | 0.00156 | 207000 | Vh2 combined with the VL of Ab15 (antibody, V domains shown, captured on anti-human IgG Fc tips) VH: EVQLVESGGGVVQPGRSLRLSCAASGFTFSSYAMHWVRQAPGKGLEWVAVISYDGSNKYYADSVKGRFTISRDNSKNTLYLQMNSLRAEDTAVYYCARGAGRGYTYGPDGFDIWGQGTMVTVSS VL: DIVMTQTPLSLSVTPGQPASISCTSSRSLLHSDGKTYVYWYVQKSGQPPQLLIYELSNRFSGVPDRFSGSGSRTDFTLKISRVEAEDVGVYYCMQYIEAPLTFGGGTKVEIK
11 | 4.01 | 0.000682 | 170000 | 7.49 | 0.000356 | 47500 | 8.56 | 0.001 | 117000 | 10.9 | 0.0024 | 221000 | Vh1 combined with the VL of Ab15 (antibody, V domains shown, captured on anti-human IgG Fc tips) VH: EVQLVESGGGVVQPGRSLRLSCAASGFTFSSYAMHWVRQAPGKGLEWVAVISYDGSNKYYADSVKGRFTISRDNSKNTLYLQMNSLRAEDTAIYYCVRGAGRGYTYGPDGFDIWGQGTMVTVSS VL: DIVMTQTPLSLSVTPGQPASISCTSSRSLLHSDGKTYVYWYVQKSGQPPQLLIYELSNRFSGVPDRFSGSGSRTDFTLKISRVEAEDVGVYYCMQYIEAPLTFGGGTKVEIK
